Laboratory results taken from publication PMC5737651.
Read-outs that look alike come from different tables or passages of the source.

B1: ssDNA (SS) (ssDNA)
DNA: GGGTGAACCTGCAGGTGGGCAAAGATGTCCTAGCAATGTAATCGTCAAGCTTTATGCCGT
B2: Holliday junction (HJ) (structured_DNA)
DNA 1: B1 DNA
DNA 2: ACGCTGCCGAATTCTACCAGTGCCAGCGACGGACATCTTTGCCCACCTGCAGGTTCACCC
DNA 3: ACGGCATAAAGCTTGACGATTACATTGCTACATGGAGCTGTCTAGAGGATCCGACTATCG
DNA 4: CGATAGTCGGATCCTCTAGACAGCTCCATGGTCGCTGGCACTGGTAGAATTCGGCAGCGT

Tests used:
Test in all cases: EMSA
F1Mut5aa (K-A) [1] = biological target: T1, F1Mut5aa (K-A) (human, UniProt Q9BXW9 1-588, S29A;K30A;K31A;T32A;K34A)
T1 sequence (Q9BXW9 1-588 S29A/K30A/K31A/T32A/K34A): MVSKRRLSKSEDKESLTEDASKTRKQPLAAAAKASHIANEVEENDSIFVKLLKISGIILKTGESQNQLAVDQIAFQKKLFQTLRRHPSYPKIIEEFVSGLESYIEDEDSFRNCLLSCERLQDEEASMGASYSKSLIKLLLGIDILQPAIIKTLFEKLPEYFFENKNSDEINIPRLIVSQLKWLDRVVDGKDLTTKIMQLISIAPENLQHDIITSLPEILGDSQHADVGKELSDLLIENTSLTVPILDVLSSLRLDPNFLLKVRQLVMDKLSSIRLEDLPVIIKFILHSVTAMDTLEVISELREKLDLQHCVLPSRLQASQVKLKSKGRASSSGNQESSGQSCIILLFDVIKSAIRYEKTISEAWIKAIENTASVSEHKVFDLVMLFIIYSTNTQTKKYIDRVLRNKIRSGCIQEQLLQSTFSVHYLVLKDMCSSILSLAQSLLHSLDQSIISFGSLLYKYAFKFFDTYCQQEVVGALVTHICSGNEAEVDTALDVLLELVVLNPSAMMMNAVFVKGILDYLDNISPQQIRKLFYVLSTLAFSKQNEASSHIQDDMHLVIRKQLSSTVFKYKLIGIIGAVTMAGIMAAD

F4 [2] = biological target: T2, F4 (human, UniProt Q9BXW9 1179-1451)
T2 sequence (Q9BXW9 1179-1451): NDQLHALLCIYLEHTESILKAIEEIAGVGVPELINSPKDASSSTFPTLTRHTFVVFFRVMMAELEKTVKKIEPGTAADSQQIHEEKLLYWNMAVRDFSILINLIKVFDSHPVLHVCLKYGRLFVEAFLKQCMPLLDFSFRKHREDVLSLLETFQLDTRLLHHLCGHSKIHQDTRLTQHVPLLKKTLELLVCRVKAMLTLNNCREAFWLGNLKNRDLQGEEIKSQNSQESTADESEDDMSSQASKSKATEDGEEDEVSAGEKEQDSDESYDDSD

F2 [3] = biological target: T3, F2 (human, UniProt Q9BXW9 589-840)
T3 sequence (Q9BXW9 589-840): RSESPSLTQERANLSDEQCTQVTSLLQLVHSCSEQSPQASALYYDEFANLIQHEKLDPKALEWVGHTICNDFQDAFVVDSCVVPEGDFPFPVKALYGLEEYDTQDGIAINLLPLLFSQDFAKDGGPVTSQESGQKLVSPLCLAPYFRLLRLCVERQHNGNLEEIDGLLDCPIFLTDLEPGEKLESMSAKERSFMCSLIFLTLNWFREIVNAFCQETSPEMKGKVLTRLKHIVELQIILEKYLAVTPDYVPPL

F3Mut1aa [4] = biological target: T4, F3Mut1aa (human, UniProt Q9BXW9 841-1178, K865A)
T4 sequence (Q9BXW9 841-1178 K865A): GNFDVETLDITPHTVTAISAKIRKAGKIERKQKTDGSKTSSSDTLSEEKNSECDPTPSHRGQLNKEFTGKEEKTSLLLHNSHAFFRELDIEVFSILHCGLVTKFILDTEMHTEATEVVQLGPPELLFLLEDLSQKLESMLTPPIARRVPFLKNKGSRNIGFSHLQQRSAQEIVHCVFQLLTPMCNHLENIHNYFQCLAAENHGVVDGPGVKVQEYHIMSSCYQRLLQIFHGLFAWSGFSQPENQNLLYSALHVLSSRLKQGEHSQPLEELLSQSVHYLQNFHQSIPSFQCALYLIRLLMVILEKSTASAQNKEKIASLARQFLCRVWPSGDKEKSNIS

FANCD2 WT full-length [5] = biological target: T5, FANCD2 WT full-length (human, UniProt Q9BXW9 1-1451)
T5 sequence (Q9BXW9 whole entry): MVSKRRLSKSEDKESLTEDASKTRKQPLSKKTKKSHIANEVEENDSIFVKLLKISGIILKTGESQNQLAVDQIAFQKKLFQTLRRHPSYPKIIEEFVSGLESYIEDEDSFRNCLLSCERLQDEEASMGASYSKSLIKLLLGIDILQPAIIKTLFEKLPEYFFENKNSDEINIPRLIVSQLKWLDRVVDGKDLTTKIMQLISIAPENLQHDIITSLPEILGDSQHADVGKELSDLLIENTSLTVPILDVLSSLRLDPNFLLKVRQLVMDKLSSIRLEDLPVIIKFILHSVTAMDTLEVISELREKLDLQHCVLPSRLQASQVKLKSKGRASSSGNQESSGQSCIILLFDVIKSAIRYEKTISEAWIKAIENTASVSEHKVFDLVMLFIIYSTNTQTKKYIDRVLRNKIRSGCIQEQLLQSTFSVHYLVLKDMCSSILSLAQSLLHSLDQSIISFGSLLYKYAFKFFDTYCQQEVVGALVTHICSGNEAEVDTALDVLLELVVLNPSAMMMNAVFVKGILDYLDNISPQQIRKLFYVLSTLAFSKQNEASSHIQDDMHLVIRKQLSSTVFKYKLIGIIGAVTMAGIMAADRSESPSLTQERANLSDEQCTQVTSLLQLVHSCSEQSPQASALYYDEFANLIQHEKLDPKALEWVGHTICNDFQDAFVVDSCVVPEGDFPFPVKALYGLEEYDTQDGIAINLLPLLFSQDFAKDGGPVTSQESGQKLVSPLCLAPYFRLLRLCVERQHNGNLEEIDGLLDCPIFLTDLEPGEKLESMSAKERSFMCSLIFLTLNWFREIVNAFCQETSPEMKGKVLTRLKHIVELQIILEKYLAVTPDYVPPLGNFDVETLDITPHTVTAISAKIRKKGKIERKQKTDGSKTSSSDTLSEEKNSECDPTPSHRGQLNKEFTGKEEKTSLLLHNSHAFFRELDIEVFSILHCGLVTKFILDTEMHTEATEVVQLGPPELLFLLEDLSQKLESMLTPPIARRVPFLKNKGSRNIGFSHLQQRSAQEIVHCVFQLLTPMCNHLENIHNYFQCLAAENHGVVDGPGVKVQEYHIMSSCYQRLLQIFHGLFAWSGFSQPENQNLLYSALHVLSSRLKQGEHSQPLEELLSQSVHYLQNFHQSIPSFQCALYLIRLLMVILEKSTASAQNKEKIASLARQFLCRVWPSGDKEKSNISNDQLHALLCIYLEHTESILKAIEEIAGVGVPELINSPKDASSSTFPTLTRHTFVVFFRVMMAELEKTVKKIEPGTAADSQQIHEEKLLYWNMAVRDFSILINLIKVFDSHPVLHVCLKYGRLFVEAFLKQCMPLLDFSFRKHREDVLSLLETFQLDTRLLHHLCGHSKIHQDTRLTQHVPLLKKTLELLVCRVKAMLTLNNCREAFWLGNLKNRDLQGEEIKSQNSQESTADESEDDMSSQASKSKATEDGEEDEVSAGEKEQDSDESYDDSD

F3 = F3 (human, UniProt Q9BXW9 841-1178)
Sequence of F3 (Q9BXW9 841-1178): as the sequence (Q9BXW9 841-1178 K865A) above, with A25K counted along it

F1 = F1 (human, UniProt Q9BXW9 1-588)
Sequence of F1 (Q9BXW9 1-588): as the sequence (Q9BXW9 1-588 S29A/K30A/K31A/T32A/K34A) above, with A29S, A30K, A31K, A32T, A34K counted along it

F1Mut5aa (K-A) [6] = biological target: T1, F1Mut5aa (K-A); remark: listed apart in the source
F4 [7] = biological target: T2, F4; remark: listed apart in the source
F2 [8] = biological target: T3, F2; remark: listed apart in the source
F3Mut1aa [9] = biological target: T4, F3Mut1aa; remark: listed apart in the source
FANCD2 WT full-length [10] = biological target: T5, FANCD2 WT full-length; remark: listed apart in the source

Binder	binding result (F1Mut5aa (K-A) [1])	binding result (F4 [2])	binding result (F2 [3])	binding result (F3Mut1aa [4])	binding result (FANCD2 WT full-length [5])	binding result (F3)	binding result (F1)	binding result (F1Mut5aa (K-A) [6])	binding result (F4 [7])	binding result (F2 [8])	binding result (F3Mut1aa [9])	binding result (FANCD2 WT full-length [10])
B1	no binding	no binding	no binding	no binding	binds	binds	binds					
B2								no binding	no binding	no binding	no binding	binds
